Laboratory results published in the nanobody polyreactivity screen of Harvey et al. (2022).

Experiment: yeast display, Sf9 membrane polyspecificity reagent, FACS + sequencing; frameworks hold sequencing errors
In short: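 After 36–48 hours of galactose induction, yeast (Saccharomyces cerevisiae BJ5465) displaying a synthetic nanobody library were stained at 4 °C for 1 hour with 10% biotinylated, detergent-solubilized Sf9 membrane reagent. Streptavidin microbeads enriched the stained cells before FACS sorting into low and high (top ~1%) gates on anti-HA and streptavidin fluorescence. Each clone's polyreactivity label reflects its gate of origin.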

Row | Sequence | polyreactivity (PSR sort gate)
1 | QVQLVESGGGLVQAGGSLRLSCAASGFIFIFYAMGWYRQAPGKERELVAGISWSSSSTYYADSVKGRFTISRDNAKNTVYLQMNSLKPEDTAVYYCAKDGRSVSGEYDYWGQGTQVTVSS | low polyreactivity
2 | QVQLVESGGGLVQAGGSLRLSCAASGFIFITVNAMGWYRQAPGKEREFVAAITRSGTGTYYADSVKGRFTISRDNAKNTVYLQMNSLKPEDTAVYYCAAEWSEESDYWGQGTQVTVSS | low polyreactivity
3 | QVQLVESGGGLVQAGGSLRLSCAASGFIFITVNAMGWYRQAPGKEREFVAAITRSGTGTYYADSVKGRFTISRDNAKNTVYLQMNSLKPVDTAVYYCAADATSTGAYDYWGQGTQVTVSS | low polyreactivity
4 | QVQLVESGGGLVQAGGSLRLSCAASGFIFITYAMGWYRQAPGKEMELVAAITYSDGSTYYADSVKGRFTISRDNAKNTVYLQMNSLKPEDTAVYYCAADSSTFPADYYWGKGTQVTVSS | low polyreactivity
5 | QVQLVESGGGLVQAGGSLRLSCAASGFIFIVNAMGWYRQAPGKERELVATISSSGDITRYADSVKARFTISRDNAKNTVYLQMNSLKPEDTAVYYCAARLWTGYWGQGTQVTVSS | high polyreactivity
6 | QVQLVESGGGLVQAGGSLRLSCAASGFIFIYNAMGWYRHAPGKERELVATINWSGGDSTYYADSVKGRFTISRDKAKNTVSLQMNSLKPEDTSVYYCATLSWYQQAYDYWGQGTQVTVSS | low polyreactivity
7 | QVQLVESGGGLVQAGGSLRLSCAASGFIFIYNAMGWYRQAPGKERELVAAISRSGGSTYYADSVKGRFTISRDNAKNTVYLHMNSLKPEDTAVYYCNARPGSRYYGYRLYYYWGQGTQVTVSS | high polyreactivity
8 | QVQLVESGGGLVQAGGSLRLSCAASGFIFIYNAMGWYRQAPGKERELVAAITGSDGGTFYADSVKGRFTISRDNAKNTVYLQMNSLKPEDTAVYYCNADIVGFQWGYDYWGQGTQVTVSS | low polyreactivity
9 | QVQLVESGGGLVQAGGSLRLSCAASGFIFIYNAMGWYRQAPGKERELVAAITGSDGGTFYADSVKGRFTISRDNAKNTVYLQMNSLKPEDTAVYYCNADNGSRQSRDGYESWGQGTQVTVSS | low polyreactivity
10 | QVQLVESGGGLVQAGGSLRLSCAASGFIFKGYAKGWYRQAPGKERELVAAINTSGGSTYYAVSVKGRFTISRDNAKNTVYVQMNSLKPEDTAVYYCNVRNRSRPYLPFWPDDNWGQGTQVTVSS | high polyreactivity
11 | QVQLVESGGGLVQAGGSLRLSCAASGFIFKIYAMGWYRQAPGKERELVAAMSSGDNTNYADSVKGRFTISRDNAKNTVYLQMNSLKPEDTAVYYCAADWSPTAASDYWGQGTQVTVSS | high polyreactivity
12 | QVQLVESGGGLVQAGGSLRLSCAASGFIFKSNAMGWYRQAPGKERELVAAITRSGGRTYYADSVKGRFTISRDNAKNTVYLQMNSLKPEDTAVYYCNAKLYTGSFDYWGQGTQVTVSS | high polyreactivity
13 | QVQLVESGGGLVQAGGSLRLSCAASGFIFKSYAMGWYRQAPGKERELVAAISGRGGSTYYADSVKGRFTISRDNAKNTVYLQMNSLKPEDTAVYYCNVGPSTYYQYDYWGQGTQVTVSS | high polyreactivity
14 | QVQLVESGGGLVQAGGSLRLSCAASGFIFKVYAMGWYRQAPGKERELVDAISRSGGSTYYADSVKGRFTISRDHAKNTVYLQMKSLKPEDTAVYYCAADYDVTGDSDYWGQGTQVTVSS | low polyreactivity
15 | QVQLVESGGGLVQAGGSLRLSCAASGFIFKWNAMGWYRPAPGKERELVAAISWHGGSTNYADSVKGRFTISRDNAKNTVYLQMNSLKQEDTAVYYCAKQQSPYYPSTLDYWGQGTQVTVSS | high polyreactivity
16 | QVQLVESGGGLVQAGGSLRLSCAASGFIFKYYAMGCYRQAPGKERELVAVISRSGGGTYYADSVKGRYTISRDHAKNTVYLQMNSLKTEDTAVYYCAAERSSGFDYWGQGTQVTVSS | high polyreactivity
17 | QVQLVESGGGLVQAGGSLRLSCAASGFIFLAYTMGWYRPAPGKERELVAAISTSGGSTYYADSVKGRFTISRDNAKNTVYLQMNILKPEDTAVYYCAARYRWGRYDYWGQGTQVTVSS | high polyreactivity
18 | QVQLVESGGGLVQAGGSLRLSCAASGFIFLDYAMGWYRQAPGKERELVAAISRSGGSTYYADSVKGRFTISRDYAKNTVYLQMNSLKPEDTAVYYCAAAFYGGGTWDSYWGQGTQVTVSS | high polyreactivity
19 | QVQLVESGGGLVQAGGSLRLSCAASGFIFLENDMGCYRQAPGKERELVASINSGSDTNYADSVKGRFTISRDNAKNTVYLQMNSLKPEDTAVYYCNASYNGVPARYDYWGQGTQVTVSS | low polyreactivity
20 | QVQLVESGGGLVQAGGSLRLSCAASGFIFLEYAMGWYRQAPGKERELVAAISARTGSTYYADSVKGRFTISRDNEKNTVYLLMNSLIPEDTAVYYSNKLTWRGEVDYWGHGTQVTVSS | high polyreactivity
21 | QVQLVESGGGLVQAGGSLRLSCAASGFIFLGKAMGWYRQAPAKERELVAAISSGGSTYADSVKGRFTISSDNAKNTVYLQMYSLKPEDTAVYYFAVDRAFRAQNYHEYYYWGQGTQVTVSS | low polyreactivity
22 | QVQLVESGGGLVQAGGSLRLSCAASGFIFLGYAMGWYRQAPGKERELVAAISSDSDTNYADSVKGRFTISRDNAKNTVYLQMNSLKPEDTAVYYCNADIDSYREMDYWGQGTQVTVSS | low polyreactivity

Row | Sequence | polyreactivity (PSR sort gate)
23 | QVQLVESGGGLVQAGGSLRLSCAASGFIFLGYGMGWYRQAPGKEREFVAGISWSGGSTYYADSVKGRFTISRDNAKNTVYLQMNSLKPEDTAVYYCNAVVFWGGGDYYWGQGTQVTVSS | low polyreactivity
24 | QVQLVESGGGLVQAGGSLRLSCAASGFIFLHYAMGWYRQAPGKERELVAAISSSGGRTYYADSVKGRFSISRDNAKNTVYLQMNSLKPEDTAVYYCAAEAYPWYVPYDYWGQGTQVTVSS | high polyreactivity
25 | QVQLVESGGGLVQAGGSLRLSCAASGFIFLSYAMGWYRQAPGKESELVAAITSNGGSTYYADSVKGRFTISRDNAKNTVYLQMNSLKPEDTAVYYCSADSGYGPYYYWGQGTQVTVSS | high polyreactivity
26 | QVQLVESGGGLVQAGGSLRLSCAASGFIFLYYAMGWNTQSPGKERELVADISRGADTKYADSVKGRFTISRDNAKNTVYLQMNSLKPEDTAVYYCATDITTFWFPYPGVELGYWGQGSQVTVSS | low polyreactivity
27 | QVQLVESGGGLVQAGGSLRLSCAASGFIFNFYAMGWYRQAPGKERELVAAISRSGGRTYYADSVKGRFTISRDNAKNTVYLQMNSLKPEDTAVYYCAAVTKSLYGYDYWGQGTQVTVSS | low polyreactivity
28 | QVQLVESGGGLVQAGGSLRLSCAASGFIFNGNVMGWYRQAPGKERELVAAITVSGGSTRYADSVKGRFTISRDNAKNTVYLQMNSLKPEDTAVYYCAARTRYLSYGWIHEYYYWGQGTQVTVSS | high polyreactivity
29 | QVQLVESGGGLVQAGGSLRLSCAASGFIFNHNAMGWYRQAPGKERELVAAISSGGRTYYADSVKGRFTISRDNAKNTVYLQMNSLKPEDTAVYYCAKDTKYSSQYGKYGYWGQGTQVTVSS | low polyreactivity
30 | QVQLVESGGGLVQAGGSLRLSCAASGFIFNHYAMGWYRQAPGKEREFVAAISWSGGSTYYADSVKGRFTISRDNAKNTVYLKMNSLKPEDTAVYYCAASYNGLWHGDYNYWGQGTQVTVSS | low polyreactivity
31 | QVQLVESGGGLVQAGGSLRLSCAASGFIFNKYAMGWYRQAPGKERQLVATIRRDGSTNYADSVKGRFTISRDNAKNTVYLQMNSLKPEDTAVYYCAVRPYYWSRDYYWGQGTQVTVSS | high polyreactivity
32 | QVQLVESGGGLVQAGGSLRLSCAASGFIFNNYAMGWYRQAPGKERELVAAITWSGGGTYYADSVKGRFTISRDNAKNTVYLQMTSLKAEDTAVYYCAVYYPAYRDEYWGQGTQVTVSS | high polyreactivity
33 | QVQLVESGGGLVQAGGSLRLSCAASGFIFNQYAMGWYRQAPGKERELVAAIRGSGGRTYYADSVKGRFTISRDNAKNTVYFQMNSLKPEDTAVYYCAKQRFGYRRSPGDYWGQGTQVTVSS | high polyreactivity
34 | QVQLVESGGGLVQAGGSLRLSCAASGFIFNRNAMGWYRQAPGKERELVAGINSGGTTKYADSVKGRFTISRDNAKNTVYLQMISLIPEDTAVYYCAKPLNYRYYVGYPLDYWGQGTQVTVSS | low polyreactivity
35 | QVQLVESGGGLVQAGGSLRLSCAASGFIFNRYAMGWYRQAPGKERELVAAITASGGSTYYADSVKGRFTISRDNAKNTVYLQMNSLKQEDTAVYYCAARAWLYSRRYGYWGQGTQVTVSS | high polyreactivity
36 | QVQLVESGGGLVQAGGSLRLSCAASGFIFNRYTMGWYRQAPGKERELVAAITGRGGSTYYADSVKGRFSISRDNAKNTVYLQMNSLKPEDTAVYYCAAAPAYRYASYTYGYDSWGQGTQVTVSS | high polyreactivity
37 | QVQLVESGGGLVQAGGSLRLSCAASGFIFPFNAMGWYRQAPGKERELVAAITSGGSTYYADSVKGRFTISRDNAKNTVYLQMNSLKPEDTAVYYCAKSWDRIGIWYRLEYWGQGTQVTVSS | low polyreactivity
38 | QVQLVESGGGLVQAGGSLRLSCAASGFIFPGNAMGWYRQAPGKEREFVAVISGSGGSTYYADSVKGRFTISRDNAKNTVYLQMNSLKPEDTAVYYCAAVYRDKSQRADYDYWGQGTQVTVSS | high polyreactivity
39 | QVQLVESGGGLVQAGGSLRLSCAASGFIFPGNARAWYRQAPGKERELVAAISNSGSRTYYADSVKGRFTISRDNAKNTVYLQMNSLKPEDTAVYYCNADVPNRGWPYDYWGQGTQVTVSS | low polyreactivity
40 | QVQLVESGGGLVQAGGSLRLSCAASGFIFPLYAMGWYRKAPGKERELVAAITWRGDTTSYADSVKGRFTISRDNAKNTVYLQMNSLKPEDTAVYYCAAEFYDWWYYGGGEYWGQGTQVTVSS | high polyreactivity
41 | QVQLVESGGGLVQAGGSLRLSCAASGFIFPLYTMGWYRQAPGKERELVAANSVTGGSTYYADSVKGRFTISRDNAKNTVYLQMNSLKPEETAVYYCNAYLFFLNRVWSFDYWGQGTQVTVSW | high polyreactivity
42 | QVQLVESGGGLVQAGGSLRLSCAASGFIFPQNAMGWYRQAPGKERELVAAIRWSGGRTYYADSVKGRFTISRDNAKNTVYLQMNSLNPEDTAVYYCAADVRQRGIYGPGPHYYWGQGTQVTVSS | high polyreactivity
43 | QVQLVESGGGLVQAGGSLRLSCAASGFIFPQYAKGWYRQAPGKERELVAAISTGGGSTYYADSVKGRFTISRDNAKNTVYLQMNSLKPEDTAVYYCNARPKYDSGHYYWGQGTQVTVSS | high polyreactivity
